Data on 4 molecules can be found in US20200109188A1.

What all share (test): ELISA, rHA coated
For orientation: In an ELISA, binding on a coated surface is turned into a signal by an enzyme label.

Experiment [1] deals with recombinant HA subtype H5 (A/Vietnam/1203/04 (H5N1)) (influenza A virus).
For experiment [2], the target named is recombinant HA subtype H6 (A/teal/HK/W312/97 (H6N1)) (influenza A virus).
Experiment [3] addresses recombinant HA subtype H9 (A/chicken/HK/G9/97 (H9N2)) (influenza A virus).
In experiment [4] the target is recombinant HA subtype H3 (A/Perth/16/09 (H3N2)) (influenza A virus).
Experiment [5] deals with recombinant HA subtype H2 (A/Swine/MO/06 (H2N3)) (influenza A virus).
For experiment [6], the target named is recombinant HA subtype H7 (A/Netherlands/219/03 (H7N7)) (influenza A virus).

Broadly, the EC50 is the concentration giving half of the maximal effect.

B1: Antibody 8 (antibody, V domains shown)
VH: QVQLQQSGPGLVKPSQTLSLTCVISGDTVSSNRATWNWMRQSPLRGLEWLGRTYYRSKWYNDYAVSVKSRVVINPDTSKNQVSLQLNTVTPDDSGVYFCARGGHITVFGVNIDAFDIWGLGTKVTVSS
VL: DIQMTQSPSSLSASVGDRVTISCRASQRLNSYLHWYQQTPGQAPKLLIYATSTLQSGVSPRFSGSGSGTDFTLTISSLQPEDVATYYCQLSRTFGHGTKVEIK
As to B1, the EC50 is 0.044 µg/mL in experiment [1]; 0.091 µg/mL in experiment [2]; above 6 µg/mL in experiment [3]; 0.067 µg/mL in experiment [4]; 0.058 µg/mL in experiment [5]; 0.015 µg/mL in experiment [6].

B2: Antibody 5 (antibody, V domains shown)
VH: QVQLQQSGPGLVKPSQTLSLTCAISGDRVSSNSAVWNWIRQSPSRGLEWLGRTYYRSKWYYDYAESVKSRIVIDPDTSKNQVSLQLNSVTPEDSAIYYCARGGHITVFGLNIDAYDIWGQGAMVTVSS
VL: DIQMTQSPSSLSASVGDRVTISCRAQSLSSYLHWYQQKPGQPPKLLIYAATTLQSGVPSRFSGSGSGTDFTLTISTFQAEDVATYYCQQSRTFGQGTKVEIK
On to B2, for which the EC50 in experiment [1] is 0.041 µg/mL; in experiment [2], 0.047 µg/mL; in experiment [3], above 6 µg/mL; in experiment [4] it was 0.03 µg/mL; in experiment [5] it was 0.048 µg/mL; in experiment [6], 0.024 µg/mL.

B3: Antibody 6 (antibody, V domains shown)
VH: QVQLQQSGPGLVKPSQTLSLTCAISGDRVSSNSAVWNWIRQSPSRGLEWLGRTYYRSKWYYDYAESVKSRIVIDPDTSKNQVSLQLNSVTPEDSAIYYCARGGHITEFGLNIDAYDIWGQGAMVTVSS
VL: DIQMTQSPSSLSASVGDRVTISCRAQSLSSYLHWYQQKPGQPPKLLIYAATTLQSGVPSRFSGSGSGTDFTLTISTFQAEDVATYYCQQSRTFGQGTKVEIK
On to B3, for which the EC50 in experiment [1] is 0.256 µg/mL; in experiment [2], 0.214 µg/mL; in experiment [3], above 6 µg/mL; in experiment [4], 0.064 µg/mL; in experiment [5], 0.213 µg/mL; in experiment [6], 0.116 µg/mL.

B4: Antibody 10 (antibody, V domains shown)
VH: QVQLQQSGPGLVKPSQTLSLTCAISGDSVSSNSATWNWIRQSPSRGLEWLGRTYYRSKWYNDYADFLKRRITINPDTSNNEVSLRLTSVTPDDTALYYCARGGHITVFGVNIDAFDVWGQGTMVTVSS
VL: DIQMTQSPSSLSASVGDRITISCRTSQSLRSYLHWYQQKPGKAPKLLIYASSTLQSGVPSRFSGSGSGTDFTLTISNLQPEDFATYYCQLSRTFGQGTKVEIK
For the molecule B4, the EC50 in experiment [1] came to 0.058 µg/mL; in experiment [2] it was 0.097 µg/mL; in experiment [3], 2.7 µg/mL; in experiment [4], 0.049 µg/mL; in experiment [5], 0.075 µg/mL; in experiment [6], 0.034 µg/mL.
